Source: PMC5715906 (The Journal of General Physiology, 2017)

Molecular target: the molecule itself
Test: crystal structure

B1: GLIC E−2′I + I9′A double mutant (receptor)
chain: QDMVSPPPPIADEPLTVNTGIYLIECYSLDDKAETFKVNAFLSLSWKDRRLAFDPVRSGVRVKTYEPEAIWIPEIRFVNVENARDADVVDISVSPDGTVQYLERFSARVLSPLDFRRYPFDSQTLHIYLIVRSVDTRNIVLAVDLEKVGKNDDVFLTGWDIESFTAVVKPANFALEDRLESKLDYQLRISRQYFSYIPNIILPMLFILFISWTAFWSTSYIANVTLVVSTLAAHIAFNILVETNLPKTPYMTYTGAIIFMIYLFYFVAVIEVTVQHYLKVESQPARAASITRASRIAFPVVFLLANIILAFLFFGF
- stoichiometry N: 5
